Measurements: the supplement of paper PMC10126150
± gives the standard deviation of the averaged measurements.

Tested on: ATP
Assay: switch fluorescence ratio, 500 uM ATP over buffer (Cy3 cluster intensity, sum of 5 cycles each) (fold (ratio)); higher = stronger signal-on switching upon ATP binding; sequences stand for … in TCGTCGGCAGCGTCAGATGTGTATAAGAGACAGTTTTTTTTTTTTTTTTTTTTTTTTT…TC
Conditions: aptamer strand: ATP DNA aptamer (quencher-CACCTGGGGGAGTATTGCGGAGGAAGG + anchor), 100 nM annealed; ATP concentration: 500 uM
Method in brief: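 After annealing to 100 nM quencher-labelled ATP aptamer, Cy3-labelled switching-strand clusters on a modified Illumina MiSeq flow-cell were imaged in selection buffer. A second image followed after 15 min with 500 uM ATP at 22 °C, and five such buffer/ATP cycles were done, each separated by NaOH stripping and re-annealing. The fluorescence ratio, averaged per switch-domain sequence, is summed target-cycle over summed buffer-cycle Cy3 intensity per cluster, with clusters outside 100-1000 RFU excluded.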
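Further: ATP exposure 15 min at 22 °C before imaging.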

Sequence	switch fluorescence ratio
TGCGCTGTA	1.02 ± 0.018
TTTGATGGTT	1.01 ± 0.011
GGGTTTACCT	1.05 ± 0.051
TTTCAAGCAT	1.02 ± 0.017
AAGGCCGGGT	1.05 ± 0.054
TATATTTTGC	0.994 ± 0.026
TGCCTGGTAT	0.984 ± 0.019
TTTTCGGCGT	1.01 ± 0.01
TAAAAATATA	1 ± 0.034
TGGTGAAGGG	0.976 ± 0.016
ACTGTATATT	1.18 ± 0.023
CCGCAGGGTT	1.51 ± 0.58
TAAAACTAAA	0.9977 ± 0.0012
ATGGGGGAGT	0.9768 ± 0.0031
TTTGATATAA	0.991 ± 0.031
ATAGTTGTGA	0.987 ± 0.024
TTTCAGTATG	1.02 ± 0.023
GTAGGAATGT	1.03 ± 0.036
GAATTGTTCG	0.985 ± 0.051
GGGGTACGAG	1.02 ± 0.033
ATGGGTGTTG	0.992 ± 0.022
GCTAGGAAGT	0.983 ± 0.022
GGCGCAACCG	1.09 ± 0.015
GGGTGGCATT	0.957 ± 0.0032
ACGGCGAGTC	1.01 ± 0.024

Sequence	switch fluorescence ratio
TTAGTTACGA	1.04 ± 0.014
CCAGACGTTT	1.037 ± 0.0073
CGACCTTGGC	1.02 ± 0.1
GGAGGCACTG	0.9996 ± 0.0095
GTGGAAGTTG	0.949 ± 0.041
ATGAACTCAG	1.03 ± 0.037
TGGGGCACCC	0.985 ± 0.01
CGCACGGTAG	1.05 ± 0.032
AATCGGGGAT	1 ± 0.012
GGTAGGGGTA	1.03 ± 0.084
CGGCTGGCTG	1.04 ± 0.011
TTTACTAGCA	1.04 ± 0.11
TCGTCAAATT	0.991 ± 0.067
TTTTAAACAC	1.07 ± 0.11
GGTCCATACG	1.01 ± 0.025
GATATCATCT	0.99 ± 0.042
GGGTACGCCG	0.934 ± 0.025
CGGTGGCGTA	0.9975 ± 0.0035
AATTAATGCA	1.01 ± 0.038
GGTTAGGAAG	1.005 ± 0.0037
GGATTCTGGA	0.991 ± 0.031
GGTGAATGGC	1.03 ± 0.017
GTATCTGATG	1.004 ± 0.0027
GGGAGGCCGT	1.04 ± 0.027
ATAGAGTTTG	0.976 ± 0.0014

Sequence	switch fluorescence ratio
TGTTGCGTTG	0.954 ± 0.039
TACTCCGGTT	2.02 ± 0.19
CGGAAAATTT	1.01 ± 0.075
AGTAGGGGT	1.02 ± 0.054
ATGTGGGATA	1.01 ± 0.063
CGAATATCAT	0.9747 ± 0.0047
CGGCAAGTGG	1.05 ± 0.031
TCGCTATTTA	1.033 ± 0.0085
AGAAGCGGTT	1.02 ± 0.025
ATAGTGGAGA	1.01 ± 0.024
TGGGTCTTTT	1.01 ± 0.054
TTGTAAATCG	0.975 ± 0.02
TGCGTATATT	0.98 ± 0.017
AAGCTGTTTC	1.009 ± 0.0061
TGGGTGTCTG	0.9826 ± 0.0043
CTCACGGGGC	1.16 ± 0.16
TGAATCTGTT	1.02 ± 0.05
GGTATATGTG	1 ± 0.025
TGGGCTACTG	1.04 ± 0.04
AAAGGTGTTG	1.16 ± 0.23
TAATTTCTGT	1.01 ± 0.024
GTCATAGGTG	1.28 ± 0.087
CTTTGTTGGT	0.9831 ± 0.0082
ATATAAGGGC	1 ± 0.074
TCGTGATTGG	1.007 ± 0.0097

Sequence	switch fluorescence ratio
TTCTGAGGTG	1.074 ± 0.0026
ACTTACGGTT	1.32 ± 0.18
TAGTAATTGG	0.987 ± 0.029
TGATTCGTTC	1.04 ± 0.033
AGTTGCGTCC	1.01 ± 0.026
ATGCTGGGTT	0.993 ± 0.048
TTTTTCGTAA	1.04 ± 0.061
TTGGGAGCTT	1.01 ± 0.048
AGTTGGGGAG	0.9933 ± 0.0023
AAGTTGGGGG	1.01 ± 0.025
TCGGCTTTGG	0.9639 ± 0.0093
TTTTGCGGTT	0.998 ± 0.038
TATTGGCGTC	0.985 ± 0.029
ATGCATTACT	1.61 ± 0.11
CTGTTCCTTT	1.056 ± 0.0014
TGCGCCAGGG	1.263 ± 0.0037
ATCAGGGTTT	1.005 ± 0.0057
TGGCGCCACT	0.976 ± 0.013
AACAAGGGGA	1.07 ± 0.067
TAATTTGAAT	1.028 ± 0.0063
CGGGGTCGG	1 ± 0.014
AACGGGACCT	1.33 ± 0.081
CAGTGCGCTA	1.15 ± 0.02
AATTTTTCTC	1.05 ± 0.1
ATGTTTTAGA	0.95 ± 0.015
